Measurements published in paper PMC3061058 (Nucleic Acids Research, 2010).
Where two headings read alike, the source gives them in different places.

T1: rgyr (reverse gyrase, full-length wild type) (Thermotoga maritima, UniProt O51934)
T1 sequence (O51934 1-1104): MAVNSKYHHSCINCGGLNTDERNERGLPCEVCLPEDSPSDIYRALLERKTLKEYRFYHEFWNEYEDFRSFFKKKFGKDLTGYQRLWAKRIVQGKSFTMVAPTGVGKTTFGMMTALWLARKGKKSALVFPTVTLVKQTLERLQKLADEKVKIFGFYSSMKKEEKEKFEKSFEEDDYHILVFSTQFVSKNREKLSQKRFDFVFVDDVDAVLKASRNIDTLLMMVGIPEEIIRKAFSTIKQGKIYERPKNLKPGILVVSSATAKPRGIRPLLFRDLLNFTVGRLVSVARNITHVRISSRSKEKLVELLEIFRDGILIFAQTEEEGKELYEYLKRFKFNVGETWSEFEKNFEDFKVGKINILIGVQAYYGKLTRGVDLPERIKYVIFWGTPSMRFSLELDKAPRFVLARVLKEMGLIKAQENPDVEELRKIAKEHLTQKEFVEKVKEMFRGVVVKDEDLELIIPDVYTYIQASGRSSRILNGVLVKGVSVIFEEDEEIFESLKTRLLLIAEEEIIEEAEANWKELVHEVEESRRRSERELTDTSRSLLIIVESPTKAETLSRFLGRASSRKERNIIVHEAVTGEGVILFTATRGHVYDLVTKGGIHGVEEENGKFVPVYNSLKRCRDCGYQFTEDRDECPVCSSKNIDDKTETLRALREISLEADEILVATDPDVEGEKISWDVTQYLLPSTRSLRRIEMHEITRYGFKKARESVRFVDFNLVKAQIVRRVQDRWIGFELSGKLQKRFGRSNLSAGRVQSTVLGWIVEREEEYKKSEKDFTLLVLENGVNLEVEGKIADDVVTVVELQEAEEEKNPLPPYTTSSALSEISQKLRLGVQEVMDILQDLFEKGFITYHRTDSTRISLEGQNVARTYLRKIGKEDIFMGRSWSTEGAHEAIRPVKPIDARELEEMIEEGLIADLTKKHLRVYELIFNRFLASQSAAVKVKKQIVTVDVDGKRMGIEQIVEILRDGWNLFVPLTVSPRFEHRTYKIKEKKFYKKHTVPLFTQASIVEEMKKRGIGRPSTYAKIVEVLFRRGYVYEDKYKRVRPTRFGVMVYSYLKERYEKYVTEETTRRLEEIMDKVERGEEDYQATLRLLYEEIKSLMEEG

T2: rgyr_hel_Δlatch (Thermotoga maritima, UniProt O51934 59-388+=G+460-541, internal_change)
T2 sequence: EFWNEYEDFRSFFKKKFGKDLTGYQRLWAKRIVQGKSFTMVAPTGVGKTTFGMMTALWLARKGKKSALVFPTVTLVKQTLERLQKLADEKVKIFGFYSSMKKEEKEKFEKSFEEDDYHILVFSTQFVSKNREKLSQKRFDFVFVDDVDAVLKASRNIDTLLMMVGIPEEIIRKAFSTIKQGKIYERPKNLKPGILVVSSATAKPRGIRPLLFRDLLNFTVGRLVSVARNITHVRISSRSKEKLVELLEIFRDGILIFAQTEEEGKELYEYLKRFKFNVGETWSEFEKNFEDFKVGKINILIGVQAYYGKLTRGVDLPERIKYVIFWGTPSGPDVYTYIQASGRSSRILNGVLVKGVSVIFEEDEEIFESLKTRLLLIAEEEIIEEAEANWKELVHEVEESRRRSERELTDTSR

T3: isolated latch (H3) (Thermotoga maritima, UniProt O51934 388-459)
T3 sequence: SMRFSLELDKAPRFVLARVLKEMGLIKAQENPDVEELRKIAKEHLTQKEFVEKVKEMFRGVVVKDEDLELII

T4: rgyr_Δlatch (Thermotoga maritima, UniProt O51934 1-1104, del389-459)
T4 sequence: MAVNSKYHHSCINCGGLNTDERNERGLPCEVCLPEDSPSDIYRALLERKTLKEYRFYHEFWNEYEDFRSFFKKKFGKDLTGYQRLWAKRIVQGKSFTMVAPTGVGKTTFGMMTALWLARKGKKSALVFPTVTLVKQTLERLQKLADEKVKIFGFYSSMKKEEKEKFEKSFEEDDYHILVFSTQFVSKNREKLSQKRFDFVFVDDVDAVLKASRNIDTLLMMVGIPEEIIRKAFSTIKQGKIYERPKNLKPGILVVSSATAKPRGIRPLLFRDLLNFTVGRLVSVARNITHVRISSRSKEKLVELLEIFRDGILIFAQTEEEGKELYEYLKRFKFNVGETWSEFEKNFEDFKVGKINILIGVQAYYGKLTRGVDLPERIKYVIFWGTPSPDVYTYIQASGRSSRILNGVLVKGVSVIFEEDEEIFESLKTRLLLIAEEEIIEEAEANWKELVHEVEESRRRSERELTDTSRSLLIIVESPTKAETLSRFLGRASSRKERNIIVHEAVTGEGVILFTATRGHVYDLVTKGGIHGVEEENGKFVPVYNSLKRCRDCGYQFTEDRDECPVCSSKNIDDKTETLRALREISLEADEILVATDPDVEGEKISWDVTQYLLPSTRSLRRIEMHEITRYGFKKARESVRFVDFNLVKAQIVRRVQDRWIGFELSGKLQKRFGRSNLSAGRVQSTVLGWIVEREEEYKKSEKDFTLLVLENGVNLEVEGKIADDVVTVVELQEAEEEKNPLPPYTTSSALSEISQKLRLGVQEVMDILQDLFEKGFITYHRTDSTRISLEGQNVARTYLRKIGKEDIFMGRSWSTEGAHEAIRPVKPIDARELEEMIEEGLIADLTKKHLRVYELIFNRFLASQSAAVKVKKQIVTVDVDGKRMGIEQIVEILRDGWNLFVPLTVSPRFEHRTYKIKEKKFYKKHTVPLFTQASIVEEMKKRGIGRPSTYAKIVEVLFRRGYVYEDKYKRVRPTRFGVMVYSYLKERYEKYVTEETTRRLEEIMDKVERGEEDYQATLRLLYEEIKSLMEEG

B1: 60 b ssDNA (ssDNA)
DNA: AAGCCAAGCTTCTAGAGTCAGCCCGTGATATTCATTACTTCTTATCCTAGGATCCCCGTT
B2: 60 bp dsDNA (dsDNA)
DNA 1: B1 DNA
DNA 2: AACGGGGATCCTAGGATAAGAAGTAATGAATATCACGGGCTGACTCTAGAAGCTTGGCTT
B3: rgyr_Δlatch (reverse gyrase lacking the latch region) (Thermotoga maritima MSB8; DEL389-459/INS388G) (protein)
chain: MAVNSKYHHSCINCGGLNTDERNERGLPCEVCLPEDSPSDIYRALLERKTLKEYRFYHEFWNEYEDFRSFFKKKFGKDLTGYQRLWAKRIVQGKSFTMVAPTGVGKTTFGMMTALWLARKGKKSALVFPTVTLVKQTLERLQKLADEKVKIFGFYSSMKKEEKEKFEKSFEEDDYHILVFSTQFVSKNREKLSQKRFDFVFVDDVDAVLKASRNIDTLLMMVGIPEEIIRKAFSTIKQGKIYERPKNLKPGILVVSSATAKPRGIRPLLFRDLLNFTVGRLVSVARNITHVRISSRSKEKLVELLEIFRDGILIFAQTEEEGKELYEYLKRFKFNVGETWSEFEKNFEDFKVGKINILIGVQAYYGKLTRGVDLPERIKYVIFWGTPSGPDVYTYIQASGRSSRILNGVLVKGVSVIFEEDEEIFESLKTRLLLIAEEEIIEEAEANWKELVHEVEESRRRSERELTDTSRSLLIIVESPTKAETLSRFLGRASSRKERNIIVHEAVTGEGVILFTATRGHVYDLVTKGGIHGVEEENGKFVPVYNSLKRCRDCGYQFTEDRDECPVCSSKNIDDKTETLRALREISLEADEILVATDPDVEGEKISWDVTQYLLPSTRSLRRIEMHEITRYGFKKARESVRFVDFNLVKAQIVRRVQDRWIGFELSGKLQKRFGRSNLSAGRVQSTVLGWIVEREEEYKKSEKDFTLLVLENGVNLEVEGKIADDVVTVVELQEAEEEKNPLPPYTTSSALSEISQKLRLGVQEVMDILQDLFEKGFITYHRTDSTRISLEGQNVARTYLRKIGKEDIFMGRSWSTEGAHEAIRPVKPIDARELEEMIEEGLIADLTKKHLRVYELIFNRFLASQSAAVKVKKQIVTVDVDGKRMGIEQIVEILRDGWNLFVPLTVSPRFEHRTYKIKEKKFYKKHTVPLFTQASIVEEMKKRGIGRPSTYAKIVEVLFRRGYVYEDKYKRVRPTRFGVMVYSYLKERYEKYVTEETTRRLEEIMDKVERGEEDYQATLRLLYEEIKSLMEEG
B4: rgyr_hel_Δlatch (helicase-like domain lacking the latch) (Thermotoga maritima MSB8; DEL389-459/INS388G) (protein)
chain: T2 sequence

Assays:
[1] = target: T1, rgyr (reverse gyrase, full-length wild type); assay: fluorescence equilibrium titration; assay type: binding
[2] = target: rgyr_Δlatch (reverse gyrase lacking the latch region) (Thermotoga maritima, UniProt O51934, DEL389-459/INS388G); assay: biochemical
[3] = target: T2, rgyr_hel_Δlatch; assay: fluorescence anisotropy
[4] = target: T3, isolated latch (H3); assay: fluorescence anisotropy
[5] = target: T4, rgyr_Δlatch; assay: fluorescence anisotropy
[6] = target: T4, rgyr_Δlatch; assay: fluorescence anisotropy; remark: listed apart in the source
[7] = substrate: Nc1ncnc2c1ncn2[C@@H]1O[C@H](COP(=O)(O)OP(=O)(O)OP(=O)(O)O)[C@@H](O)[C@H]1O; assay: purified protein; conditions: no DNA, pH 7.5, 10 mM MgCl2, 0.15 M NaCl

| Molecule | Kd [3] | Kd [4] | Km [7] | kcat [7] | further results |
| --- | --- | --- | --- | --- | --- |
| Nc1ncnc2c1ncn2[C@@H]1O[C@H](COP(=O)(O)OP(=O)(O)NP(=O)(O)O)[C@@H](O)[C@H]1O [ADPNP] | – | – | – | – | Kd [1]: 10 ± 0.8 µM; Kd [2]: 4.7 ± 0.8 µM |
| B1 | 0.42 ± 0.07 µM | 64 ± 29 µM | – | – | Kd [5]: 0.033 ± 0.077 µM |
| B2 | 21 ± 5 µM | 78 ± 39 µM | – | – | Kd [6]: 0.096 ± 0.019 µM |
| B3 | – | – | 26.5 ± 3.5 µM | 0.018 s⁻¹ | – |
| B4 | – | – | 67 ± 18 µM | 0.02 s⁻¹ | – |
